Experimental data: patent publication US20240024490

Key:
ABL = ABL (UniProt P00519)
BRD4 = BRD4 (UniProt O60885)
BTK = BTK (UniProt Q06187)
Chain of BTK (Q06187 whole entry): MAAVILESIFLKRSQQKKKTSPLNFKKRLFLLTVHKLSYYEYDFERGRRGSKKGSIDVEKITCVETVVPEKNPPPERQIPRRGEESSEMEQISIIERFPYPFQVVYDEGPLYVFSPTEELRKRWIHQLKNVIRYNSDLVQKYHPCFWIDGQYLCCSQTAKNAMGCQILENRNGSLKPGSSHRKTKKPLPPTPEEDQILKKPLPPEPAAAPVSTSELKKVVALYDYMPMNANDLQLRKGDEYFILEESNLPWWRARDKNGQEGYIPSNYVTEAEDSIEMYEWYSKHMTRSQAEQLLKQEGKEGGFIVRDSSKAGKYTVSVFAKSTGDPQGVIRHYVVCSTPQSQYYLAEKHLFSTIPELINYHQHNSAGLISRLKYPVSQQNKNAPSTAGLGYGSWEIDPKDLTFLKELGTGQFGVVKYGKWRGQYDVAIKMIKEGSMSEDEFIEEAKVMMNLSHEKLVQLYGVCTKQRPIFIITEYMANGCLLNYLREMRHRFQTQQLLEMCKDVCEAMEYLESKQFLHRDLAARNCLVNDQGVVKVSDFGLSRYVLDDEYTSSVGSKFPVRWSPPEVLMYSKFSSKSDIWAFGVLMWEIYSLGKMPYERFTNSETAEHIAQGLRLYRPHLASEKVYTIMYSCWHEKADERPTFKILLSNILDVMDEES

Chain of ABL (P00519 whole entry): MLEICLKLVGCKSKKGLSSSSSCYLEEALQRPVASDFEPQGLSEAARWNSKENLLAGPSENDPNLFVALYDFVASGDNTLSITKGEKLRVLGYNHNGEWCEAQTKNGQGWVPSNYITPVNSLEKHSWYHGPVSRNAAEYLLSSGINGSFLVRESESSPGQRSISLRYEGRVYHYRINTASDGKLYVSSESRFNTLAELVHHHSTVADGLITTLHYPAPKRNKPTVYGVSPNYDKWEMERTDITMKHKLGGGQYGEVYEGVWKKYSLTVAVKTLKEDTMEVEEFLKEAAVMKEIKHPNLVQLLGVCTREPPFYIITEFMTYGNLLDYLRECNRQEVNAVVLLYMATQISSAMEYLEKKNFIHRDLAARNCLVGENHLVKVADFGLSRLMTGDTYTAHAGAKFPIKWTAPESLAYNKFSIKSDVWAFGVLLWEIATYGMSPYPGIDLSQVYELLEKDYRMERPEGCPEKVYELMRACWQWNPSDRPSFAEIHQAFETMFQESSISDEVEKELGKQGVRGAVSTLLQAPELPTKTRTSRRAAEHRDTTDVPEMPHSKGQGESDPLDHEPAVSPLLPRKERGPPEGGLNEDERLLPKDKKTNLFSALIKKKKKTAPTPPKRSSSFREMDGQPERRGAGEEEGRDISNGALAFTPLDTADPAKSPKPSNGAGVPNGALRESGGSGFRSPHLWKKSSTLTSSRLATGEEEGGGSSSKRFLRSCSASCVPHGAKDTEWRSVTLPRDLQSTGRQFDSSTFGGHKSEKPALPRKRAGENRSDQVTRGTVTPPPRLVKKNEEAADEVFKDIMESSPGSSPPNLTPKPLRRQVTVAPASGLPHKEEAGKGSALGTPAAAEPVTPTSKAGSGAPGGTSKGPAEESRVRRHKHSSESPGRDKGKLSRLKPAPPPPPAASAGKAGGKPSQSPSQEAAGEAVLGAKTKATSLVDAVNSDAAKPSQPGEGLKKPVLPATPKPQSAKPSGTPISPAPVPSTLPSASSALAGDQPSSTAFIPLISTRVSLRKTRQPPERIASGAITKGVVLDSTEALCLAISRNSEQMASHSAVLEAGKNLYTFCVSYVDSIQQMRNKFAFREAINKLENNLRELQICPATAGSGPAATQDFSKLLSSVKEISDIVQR

PKC
phosphorylation of ABL by PKC in vitro, with PHICS5 (ABL): An ABL-targeting PHICS5 formed using dihydropyrazole core also induced phosphorylation of ABL, compare to DMSO or activator VS1012 treated controls
phosphorylation of ABL by PKC in vitro, with VS558 (ABL): bifunctional molecule VS558 based on a known inhibitor dasatinib, that binds to a different pocket of ABL kinase [16], also induced its phosphorylation by PKC in vitro
phosphorylation of BRD4 by PKC in vitro, with PHICS4 (BRD4): BRD4 phosphorylation was detected in the presence of PHICS4
phosphorylation of BRD4 by PKC in vitro, with the chimeric molecule made from (R)-JQ1 (BRD4): absence of phosphorylation when a chimeric molecule generated from the inactive enantiomer of (S)-JQ1 [i.e., (R)-JQ1] was used
phosphorylation of BTK by PKC in vitro, with PHICS6 (PKC-motif antibody) (BTK): the degree of phosphorylation was higher in the presence of PHICS6
phosphorylation of BTK by PKC in vitro, with the inactive analog iPHICS6 (BTK): the inactive PHICS analogs lowered phosphorylation induction
phosphorylation of BTK by PKC in vitro, without PHICS (PKC-motif antibody) (BTK): some phosphorylation of BTK by PKC was observed in the absence of PHICS (quantified using PKC-motif antibody)
